According to PMC6949295 (2020):

B1: Exo70-Flag [rat] / HA-Sec8 [not stated] (parent)
chain 1: MIPPQEASARRREIEDKLKQEEETLSFIRDSLEKSDQLTKNMVSILSSFESRLMKLENSIIPVHKQTENLQRLQENVEKTLSCLDHVISYYHVASDTEKIIREGPTGRLEEYLGSMAKIQKAVEYFQDNSPDSPELNKVKLLFERGKESLESEFRSLMTRHSKVISPVLVLDLISADDELEVQEDVVLEHLPESVLQDVIRISRWLVEYGRNQDFMNVYYQIRSSQLDRSIKGLKEHFRKSSSSSGVPYSPAIPNKRKDTPTKKPIKRPGRDDMLDVETDAYIHCVSAFVRLAQSEYQLLMGIIPEHHQKKTFDSLIQDALDGLMLEGENIVSAARKAIIRHDFSTVLTVFPILRHLKQTKPEFDQVLQGTAASTKNKLPGLITSMETIGAKALEDFADNIKNDPDKEYNMPKDGTVHELTSNAILFLQQLLDFQETAGAMLASQETSSSATSYNSEFSKRLLSTYICKVLGNLQLNLLSKSKVYEDPALSAIFLHNNYNYILKSLEKSELIQLVAVTQKTAERSYREHIEQQIQTYQRSWLKVTDYIAEKNLPVFQPGVKLRDKERQMIKERFKGFNDGLEELCKIQKAWAIPDTEQRDKIRQAQKSIVKETYGAFLHRYSSVPFTKNPEKYIKYRVEQVGDMIDRLFDTSA
chain 2: MAAEAAGGKYRSTVSKSKDPSGLLISVIRTLSTSDDVEDRENEKGRLEEAYEKCDRDLDELIVQHYTELTTAIRTYQSITERITNSRNKIKQVKENLLSCKMLLHCKRDELRKLWIEGIEHKHVLNLLDEIENIKQVPQKLEQCMASKHYLSATDMLVSAVESLEGPLLQVEGLSDLRLELHSKKMNLHLVLIEELHRHLYIKSTSRVVQRNKEKGKMSSHGKDASPGPLIDVSNISTPRKFLDATQYSAAGSSSVREMNLQDIKEDLDCDPEENSTLFMGILIQGLARLKKIPETVKAIKERLEQELKQIVKRSTTQVADSAYQRGESLTVDNQPRLLLELLELLFDKFNAVASAHSIVLGYLQDSVGTQPTQQEEIKLYDMADVWVKIQDVLQMLLTEYLDMKNTRTASEPSAQLSYASTGREFAAFFAKKKPQRPKNSLFKFESSSHAISMSAYLREQRRELYSRSGELQGGPDDNLIEGGGTKFVCKPGARNITVIFHPLLRFIQEIEHALGLGPAKQCLLREFLTIYIKNIFLNQVLTEINKEIEGVTKTSDPLKILANADTMKVLGVQRPLLQSTIIVEKTVQDLMNLMHDLSAYSDQFLNMVCVKLQEYKDTCSTAYRGIVQSEEKLVISASWAKDDDISRLLKSLPNWTNMAQPKQLRPKREEEEDFIRAAFGKESEVLIGNLGDKLIPPQDILRDVSDLKALANMHESLEWLAGRTKSAFSSLSASQMLSPAQESHVNMDLPPVSEQIMQTLSELAKSFQDMADRCLLVLHLEVRVHCFHYLIPLAKEGNYAIVANVESMDYDPLVVKLNKDISAMEEAMSASLQQHKFQYIFEGLGHLISCILINGAQYFRRISESGIKKMCRNIFVLQQNLTNITMSREADLDFARQYYEMLYNTADELLNLVVDQGVKYTELEYIHALTLLHRSQTGVGDQTTQNTRLQRLKEIICEQAAIKQATKDKKITTV
B2: Exo70 wild type, HA-tagged and Flag-tagged copies co-expressed [rat] / itself (parent)
chain: B1 chain 1
B3: Exo70-Flag [rat] / HA-Sec6 [not stated] (parent)
chain 1: B1 chain 1
chain 2: MCKDSACFSTMKETDLEAVATAVQRVAGMLQRPDQLDKVEQYRRREARKKASVEARLKAAIQSQLDGVRTGLSQLHNALNDVKDIQQSLADVSKDWRQSINTIESLKDVKDAVVQHSQLAAAVENLKNIFSVPEIVRETQDLIEQGALLQAHRKLMDLECSRDGLMCEQYRMDSGNKRDMTLIHGYFGSTQGLSDELAKQLWMVLQRSLVTVRRDPTLLVSVVRIIEREEKIDRRILDRKKQTGFVPPGRPKNWKEKMFAVLDRTVTTRIEGTQADTRESDKMWLVRHLEIIRKYVLDDLVIAKNLLVQCFPPHYDIFKNLLSMYHQALSIRMQDLASEDLEANEIVSLLTWVLNTYTSAEMMGNVELAPEVDVNALEPLLSPNVVSELLDTYMSTLTSNIIAWLRKALETDKKDWSKETEPEADQDGYYQTTLPAIVFQMFEQNLQVAAQISEDLKTKVLVLCLQQMNSFLSRYKEEAQLYKEEHLRNRQHPHCYVQYMVAIINNCQTFKESIISLKRKYLKPETEESLCQSQPSMDGILDAIAKEGCSSLLEEVFLDLEQHLNELMTKKWMLGSNAVDIICVTVEDYFNDFAKIKKPYKKRMTAEAHRRVVVEYLRAVMQKRISFRSAEERKEGAEKMVREAEQLRFLFRKLASGFGEDADGHCDTIVAVAEVIKLTDPSLLYLEVSTLVSKYPDIRDDHIGALLALRGDASRDMKQTIMETLEQGPMQASPNYVPIFQEIVVPSLNVAKLLK

Variants of: B1
Assay: co-immunoprecipitation (IP: HA, blot: Flag)
Conditions: with HA-Sec8; 293T cells; parent: 1.03

response (relative band intensity)	Variant
0.45	chain 1 S47D S59D S89D

Variants of: B2
Assay: co-immunoprecipitation (IP: HA, blot: Flag)
Conditions: with itself; 293T cells; parent: 1

Variant	response (relative band intensity)
chain 1 S47D S89D	0.18
chain 1 S47D S59D S89D	0.03

The next lines start with the values.

response (relative band intensity)	Variant
0.46	chain 1 S89D
0.41	chain 1 S59D S89D

Same assay, conditions: with itself; 293T cells; with Myc-ULK1 co-expressed; parent: 0.35

Variant	response (relative band intensity)
chain 1 S47A	0.87
chain 1 S47A S59A S89A	2.44

Now from value to variant:

response (relative band intensity)	Variant
1	chain 1 S89A
1.16	chain 1 S59A

Same assay, conditions: with itself; 293T cells; without Myc-ULK1; parent: 1

Variant	response (relative band intensity)
chain 1 S47A	1
chain 1 S47A S59A S89A	1.49

Results, then the variant that gave them:

response (relative band intensity)	Variant
1.17	chain 1 S89A
1.31	chain 1 S59A

Variants of: B3
Assay: co-immunoprecipitation (IP: HA, blot: Flag)
Conditions: with HA-Sec6; 293T cells; parent: 1

response (relative band intensity)	Variant
0.31	chain 1 S47D S59D S89D
